Values quoted from earlier work as cited in paper PMC5855594, “Poly-N-Acetyllactosamine Neo-Glycoproteins as Nanomolar Ligands of Human Galectin-3: Binding Kinetics and Modeling” (International Journal of Molecular Sciences, 2018).

How the values were obtained:
[1] = target: BSA neo-glycoprotein 15 (Bos taurus) (UniProt P02769); assay: competitive ELISA
[2] = target: BSA neo-glycoprotein 13 (Bos taurus) (UniProt P02769); assay: competitive ELISA
[3] = target: BSA neo-glycoprotein 14 (Bos taurus) (UniProt P02769); assay: competitive ELISA
BSA neo-glycoprotein 14 (Bos taurus), sequence (P02769 25-607): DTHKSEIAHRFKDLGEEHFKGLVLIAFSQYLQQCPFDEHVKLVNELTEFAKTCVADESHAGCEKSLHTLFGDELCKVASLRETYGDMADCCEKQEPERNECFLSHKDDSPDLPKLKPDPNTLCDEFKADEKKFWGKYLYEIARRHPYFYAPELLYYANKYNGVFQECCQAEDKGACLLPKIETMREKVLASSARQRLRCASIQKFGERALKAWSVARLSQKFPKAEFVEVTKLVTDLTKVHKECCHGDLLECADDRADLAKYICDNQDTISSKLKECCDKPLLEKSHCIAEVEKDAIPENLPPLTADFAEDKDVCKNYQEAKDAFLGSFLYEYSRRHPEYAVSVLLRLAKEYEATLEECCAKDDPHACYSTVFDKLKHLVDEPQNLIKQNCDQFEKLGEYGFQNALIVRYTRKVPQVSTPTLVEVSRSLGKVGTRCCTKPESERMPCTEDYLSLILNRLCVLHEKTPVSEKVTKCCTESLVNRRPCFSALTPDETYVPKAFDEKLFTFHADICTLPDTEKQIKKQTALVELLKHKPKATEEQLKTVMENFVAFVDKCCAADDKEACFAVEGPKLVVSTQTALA

[4] = target: BSA neo-glycoprotein 16 (Bos taurus); assay: competitive ELISA
BSA neo-glycoprotein 16 (Bos taurus), sequence (P02769 25-607): as above

[5] = target: BSA neo-glycoprotein 15 (Bos taurus) (UniProt P02769); assay: ELISA
[6] = target: BSA neo-glycoprotein 13 (Bos taurus) (UniProt P02769); assay: ELISA
[7] = target: BSA neo-glycoprotein 14 (Bos taurus) (UniProt P02769); assay: ELISA
[8] = target: BSA neo-glycoprotein 12 (Bos taurus) (UniProt P02769); assay: ELISA
BSA neo-glycoprotein 12 (Bos taurus), sequence (P02769 25-607): as above

[9] = target: BSA neo-glycoprotein 16 (Bos taurus); assay: ELISA
[10] = target: BSA neo-glycoprotein 11 (Bos taurus) (UniProt P02769); assay: ELISA
BSA neo-glycoprotein 11 (Bos taurus), sequence (P02769 25-607): as above

[11] = target: Asialofetuin (Bos taurus) (UniProt P12763); assay: ITC
Asialofetuin (Bos taurus), sequence (P12763 19-359): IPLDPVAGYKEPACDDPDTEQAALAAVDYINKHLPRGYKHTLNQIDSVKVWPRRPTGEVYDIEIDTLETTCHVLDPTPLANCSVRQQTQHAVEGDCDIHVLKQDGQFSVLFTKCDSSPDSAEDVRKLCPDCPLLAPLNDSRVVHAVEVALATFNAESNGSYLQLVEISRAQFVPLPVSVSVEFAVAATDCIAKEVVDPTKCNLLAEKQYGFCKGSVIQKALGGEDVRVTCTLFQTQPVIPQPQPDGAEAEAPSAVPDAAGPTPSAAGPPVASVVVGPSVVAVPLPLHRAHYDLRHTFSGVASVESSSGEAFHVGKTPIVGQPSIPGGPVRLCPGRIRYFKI

Galectin-3, sequence (P17931 2-250): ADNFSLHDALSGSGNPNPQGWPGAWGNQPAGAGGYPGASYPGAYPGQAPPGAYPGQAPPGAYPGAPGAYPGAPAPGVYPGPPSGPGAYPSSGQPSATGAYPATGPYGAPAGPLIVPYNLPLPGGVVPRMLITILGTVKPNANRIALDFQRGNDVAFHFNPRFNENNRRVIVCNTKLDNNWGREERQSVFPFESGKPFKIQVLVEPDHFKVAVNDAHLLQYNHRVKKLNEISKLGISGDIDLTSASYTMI
BSA neo-glycoprotein 13 (Bos taurus), sequence (P02769 25-607): as the sequence (P02769 25-607) above
BSA neo-glycoprotein 15 (Bos taurus), sequence (P02769 25-607): as above

Galectin-3 (from UniProt P17931)
IC50 [1]: 212 nM | IC50 [2]: 37 nM | IC50 [3]: 76 nM | IC50 [4]: 65 nM | Kd [5]: 700 nM | Kd [6]: 76 nM | Kd [7]: 350 nM | Kd [8]: 300 nM | Kd [9]: 290 nM | Kd [10]: 30 nM | Kd [11]: 7.14 nM
